Results from patent US20030170726A1, “Peptides sequences comprising one or several protein binding units of the ena/vasp family and the uses thereof” (priority 2000, published 2003).

B1: WASP: WASP protein, expressed from the WAS gene mutated in Wiskott-Aldrich Syndrome; interacts with the Arp2/3 complex (protein, UniProt P42768 2-502, looked up)
Actin nucleation-promoting …: SGGPMGGRPGGRGAPAVQQNIPSTLLQDHENQRLFEMLGRKCLTLATAVVQLYLALPPGAEHWTKEHCGAVCFVKDNPQKSYFIRLYGLQAGRLLWEQELYSQLVYSTPTPFFHTFAGDDCQAGLNFADEDEAQAFRALVQEKIQKRNQRQSGDRRQLPPPPTPANEERRGGLPPLPLHPGGDQGGPPVGPLSLGLATVDIQNPDITSSRYRGLPAPGPSPADKKRSGKKKISKADIGAPSGFKHVSHVGWDPQNGFDVNNLDPDLRSLFSRAGISEAQLTDAETSKLIYDFIEDQGGLEAVRQEMRRQEPLPPPPPPSRGGNQLPRPPIVGGNKGRSGPLPPVPLGIAPPPPTPRGPPPPGRGGPPPPPPPATGRSGPLPPPPPGAGGPPMPPPPPPPPPPPSSGNGPAPPPLPPALVPAGGLAPGGGRGALLDQIRQGIQLNKTPGAPESSALQPPPQSSEGLVGALMHVMQKRSRAIHSSDEGEDQAGDEDEDDEWDD
B2: GST-ActA-Pro: recombinant protein composed of GST (237 residues) and proline rich and carboxy-terminal central parts of ActA (350 residues, SEQ ID NO 6) (protein)
chain: DFPPPPTDEELRLALPETPMLLGFNAPATSEPSSFEFPPPPTDEELRLALPETPMLLGFNAPATSEPSSFEFPPPPTEDELEIIRETASSLDSSFTRGDLASLRNAINRHSQNFSDFPPIPTEEELNGRGGRPTSEEFSSLNSGDFTDDENSETTEEEIDRLADLRDRGTGKHSRNAGFLPLNPFASSPVPSLSPKVSKISAPALISDITKKTPFKNPSQPLNVFNKKTTTKTVTKKPTPVKTAPKLAELPATKPQETVLRENKTPFIEKQAETNKQSINMPSLPVIQKEATESDKEEMKPQTEEKMVEESESANNANGKNRSAGIEEGKLIAKSAEDEKAKEEPGNHTT
B3: N-WASP: N-WASP protein, approximately 45% sequence identity with human WASP protein; interacts with the Arp2/3 complex (protein, UniProt O00401 2-505, looked up)
Actin nucleation-promoting …: SSVQQQPPPPRRVTNVGSLLLTPQENESLFTFLGKKCVTMSSAVVQLYAADRNCMWSKKCSGVACLVKDNPQRSYFLRIFDIKDGKLLWEQELYNNFVYNSPRGYFHTFAGDTCQVALNFANEEEAKKFRKAVTDLLGRRQRKSEKRRDPPNGPNLPMATVDIKNPEITTNRFYGPQVNNISHTKEKKKGKAKKKRLTKADIGTPSNFQHIGHVGWDPNTGFDLNNLDPELKNLFDMCGISEAQLKDRETSKVIYDFIEKTGGVEAVKNELRRQAPPPPPPSRGGPPPPPPPPHNSGPPPPPARGRGAPPPPPSRAPTAAPPPPPPSRPSVAVPPPPPNRMYPPPPPALPSSAPSGPPPPPPSVLGVGPVAPPPPPPPPPPPGPPPPPGLPSDGDHQVPTTAGNKAALLDQIREGAQLKKVEQNSRPVSCSGRDALLDQIRQGIQLKSVADGQESTPPTPAPTSGIVGALMEVMQKRSKAIHSSDEDEDEDDEEDFEDDDEWED

Key:
[1] = system: proteins of the Ena/VASP family; test: Actin polymerisation on beads coated with proteins binding to the Ena/VASP family (beads of the invention), in lysed cell supernatants; assay type: biochemical, mammal, in particular human; details: for inhibition of actin polymerisation detected using the beads of the invention: substance added to lysed mammal, in particular human, cell supernatants
Excerpt: a stage of placing the tested molecule in the presence of a reagent as defined above, in a medium containing actin and the elements necessary for actin polymerisation defined above, in particular in an extract of lysed cell supernatant,
followed by the optional detection of an inhibition or an activation of the process of actin polymerisation at the surface of said reagent, in comparison to a control (namely a medium as described above not containing the tested molecule, and in which is found said reagent), corresponding respectively to an effect of inhibition or stimulation of the tested molecule on the formation of the actin cytoskeleton by the mechanism involving the abovementioned protein or peptide bond or their derived sequence, with a protein of the Ena protein/VASP family.
The abovementioned medium in which the tested molecule is placed in the presence of said reagent, advantageously contains a compound labelled in particular by fluorescence, making it possible to detect actin polymerisation on said reagent. By way of illustration, the abovementioned labelled compound is a fluorescent derivative of actin, such as actin-rhodamine (commercially available), making it possible to visualize actin polymerisation by epifluorescence microscopy.
The GST-ActA-Pro protein was adsorbed onto 500 nm latex beads (Polyscience Inc, 400 Valley Road, Warrington Pa., USA) according to the manufacturers' instructions.

Arp2/3 complex = test: Actin polymerisation on beads coated with WASP protein, in lysed cell supernatants; assay type: biochemical; details: substance added to lysed mammal, in particular human
Excerpt: a stage of placing, in a medium containing actin and the elements necessary for actin polymerisation i.e. the Arp2/3 complex, in particular in an extract of lysed cell supernatant, the tested molecule with a reagent comprising WASP family proteins in the eucaryotic cells, in particular human or of other mammal cells, or insect cells, or from micro-organisms such as yeasts, or peptide fragments of these WASP family proteins, said peptide fragments having the property of the WASP family proteins to polymerise the actin by inducing cellular motility, or peptide sequences derived from WASP family proteins or the abovementioned peptide fragments, in particular by substitution of one or more amino acids of these fragments, said derived sequences having the abovementioned property of the WASP family proteins and said fragments of the latter, said abovementioned WASP family proteins, or peptide fragments or derived sequences, being bound or adsorbed to a support as defined above,
followed by the optional detection of an inhibition or an activation of the process of actin polymerisation at the surface of said reagent, in comparison to a control, corresponding respectively to an effect of inhibition or of stimulation of the tested molecule on the formation of the actin cytoskeleton by the mechanism involving the bonding of said WASP family proteins, or abovementioned peptide fragments or derived sequences, with the Arp2/3 complex.

[2] = system: mitochondria carrying zyxin at their surface; test: Actin polymerisation in mitochondria carrying zyxin at their surface; assay type: cell-based
Excerpt: Furthermore, as a number of processes dependant on actin polymerisation require the recruitment and activation of the Arp2/3 complex, the Inventors have searched for the presence of this complex in the mitochondria carrying zyxin at their surface.

| Molecule | inhibition of actin polymerisation detected using the beads of the invention [1] | inhibition of actin polymerisation detected using beads coated with WASP protein (Arp2/3 complex) | inhibition of actin polymerisation in the mitochondria [2] | nucleation of actin by the coated beads ([1]; protein adsorbed onto 500 nm latex beads, added to extracts prepared from cells) |
| --- | --- | --- | --- | --- |
| ActA-Pro: ActA protein fragment of Listeria monocytogenes, 350 amino acids, positions 235 to 584 of SEQ ID NO 2 | inhibited | not inhibited | – | – |
| B1 | not inhibited | inhibited | does not inhibit | – |
| B2 | – | – | – | capable of nucleating the actin |
| B3 | not inhibited | inhibited | – | – |
